Source: article PMC11567897

Target: T1, Bruno-EGFP (BrunoFL-EGFP) (UniProt O02374)
T1 sequence: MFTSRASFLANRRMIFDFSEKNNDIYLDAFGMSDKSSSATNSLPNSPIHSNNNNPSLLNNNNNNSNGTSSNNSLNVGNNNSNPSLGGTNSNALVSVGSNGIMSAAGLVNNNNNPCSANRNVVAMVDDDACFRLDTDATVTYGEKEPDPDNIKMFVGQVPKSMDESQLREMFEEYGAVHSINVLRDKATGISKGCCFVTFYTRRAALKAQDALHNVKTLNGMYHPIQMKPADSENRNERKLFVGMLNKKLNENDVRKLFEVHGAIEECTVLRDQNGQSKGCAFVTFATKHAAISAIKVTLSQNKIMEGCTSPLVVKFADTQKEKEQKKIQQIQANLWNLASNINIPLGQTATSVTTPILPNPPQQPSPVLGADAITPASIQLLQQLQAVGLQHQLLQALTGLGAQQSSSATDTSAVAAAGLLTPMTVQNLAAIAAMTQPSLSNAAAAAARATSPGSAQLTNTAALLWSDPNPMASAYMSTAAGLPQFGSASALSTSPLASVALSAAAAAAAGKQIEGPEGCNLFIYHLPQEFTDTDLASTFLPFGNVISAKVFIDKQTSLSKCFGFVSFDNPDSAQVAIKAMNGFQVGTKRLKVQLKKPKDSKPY
Test: EMSA
Conditions: EMSA: 50 nM RNA, 20 mM Tris-HCl pH 7.5, 150 mM NaCl, 2 mM MgCl2, 5% glycerol, 0.5 mM TCEP, 20 min at room temperature; 0.8% agarose 0.5x TBE gel at 4 C

| Sequence | binding |
| --- | --- |
| GGGAGUGAAGCAUUUGCGCGAUUUUCGUCUUUCUGUUUCCGUUUGCAAAAAAGUUUAUAAAAUGCUUACACUCUGCUGCAGACACGCCAACCGGAAGUGCGCACUAAGCGCUUGUUUGUAGCACAGUGUAGAAUUCUGGCGUAAUUUACAGCUCUACUUUAAAGUCUUCUAGAUAGCUAUCUACUAUUUAUAAACUUAUUUAUUGUCUUGAAUGUAUGUUAAUUGUAUGUAUUGAUGGUGAUCACGUUUUUUUUGUCCUAUAACAAGCUGCAAUGUAAAAUCCAAAAAAAAAAUG [oskar292] | binds |
| GGGUGGAAAAUUCGCUUGCACAAAAUCAACGCCGCGGCUGAUUUAUUAUUGAUGUGCUCAAGCAAAUUCA [WTOES (WT67)] | no binding |
| GGGUGGAAAAUUCGCUUGCACAAAAUCAACGUUGCGGCUGAUUUAUUAUUGAUGUGCUCAAGCAAAUUCA [UUOES (UU67)] | no binding |
